Laboratory results from US20020086983A1.

Tests used:
[1] = biological target: B42-Mch5b-FDH (residues 3-177) (UniProt Q14790); assay: yeast two-hybrid liquid b-gal assay; four independent experiments
[2] = biological target: B42-Mch5b-FDH-A (residues 3-80) (UniProt Q14790); assay: as above
[3] = biological target: B42-Mch5b-FDH-B (residues 102-177) (UniProt Q14790); assay: as above
B42 = assay: yeast two-hybrid liquid b-gal assay; activation hybrid alone (background control); four independent experiments

B42-Mch5b-FDH-B (residues 102-177), sequence (Q14790 102-177, form in doubt): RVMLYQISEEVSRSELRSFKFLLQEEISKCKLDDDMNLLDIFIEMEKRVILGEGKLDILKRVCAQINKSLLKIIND
B42-Mch5b-FDH-A (residues 3-80), sequence (Q14790 3-80, form in doubt): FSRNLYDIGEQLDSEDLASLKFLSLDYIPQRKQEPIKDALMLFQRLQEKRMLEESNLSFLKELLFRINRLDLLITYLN
B42-Mch5b-FDH (residues 3-177), sequence (Q14790 3-177, form in doubt): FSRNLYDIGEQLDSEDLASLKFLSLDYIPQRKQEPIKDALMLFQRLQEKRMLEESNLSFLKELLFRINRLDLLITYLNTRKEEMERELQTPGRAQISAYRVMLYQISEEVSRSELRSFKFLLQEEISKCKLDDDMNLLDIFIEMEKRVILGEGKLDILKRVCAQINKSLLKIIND

Liquid assay b-gal activity [1]: 300 Miller units
Liquid assay b-gal activity [2]: 52.7 Miller units
Liquid assay b-gal activity [3]: 728 Miller units
Liquid assay b-gal activity (B42): 23.2 Miller units
Substance: LexA-FLAME-1-FDH (residues 1-160) (from UniProt O15519 1-160)
